Measured values taken from paper PMC10546976.

B1: oligo(A)25 (ssRNA)
RNA: AAAAAAAAAAAAAAAAAAAAAAAAA

Tests used:
neuPABP (PABPC1L2) = assay: EMSA; settings: […] (100 nM), 1 h at 30 C, pH not stated
PABPC1 = PABPC1 (UniProt P11940 1-636); assay: EMSA
PABPC1, sequence (P11940 whole entry): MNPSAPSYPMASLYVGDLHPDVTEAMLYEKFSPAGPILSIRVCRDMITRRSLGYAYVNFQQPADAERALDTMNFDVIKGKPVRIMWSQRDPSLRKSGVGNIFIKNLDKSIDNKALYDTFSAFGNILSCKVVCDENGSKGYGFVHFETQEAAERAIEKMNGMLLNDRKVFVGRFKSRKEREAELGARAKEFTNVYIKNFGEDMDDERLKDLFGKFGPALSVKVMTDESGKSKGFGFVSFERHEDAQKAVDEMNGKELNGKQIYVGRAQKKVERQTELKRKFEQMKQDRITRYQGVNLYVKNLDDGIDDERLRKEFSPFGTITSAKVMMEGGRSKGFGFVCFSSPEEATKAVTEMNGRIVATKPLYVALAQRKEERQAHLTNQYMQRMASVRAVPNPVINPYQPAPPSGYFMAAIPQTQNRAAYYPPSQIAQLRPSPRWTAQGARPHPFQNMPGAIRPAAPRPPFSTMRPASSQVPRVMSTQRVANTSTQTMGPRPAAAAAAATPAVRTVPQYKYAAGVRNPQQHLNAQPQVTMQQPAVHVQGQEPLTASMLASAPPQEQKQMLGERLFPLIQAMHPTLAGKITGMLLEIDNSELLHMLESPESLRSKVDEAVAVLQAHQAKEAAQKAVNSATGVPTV

| Molecule | Kd (neuPABP (PABPC1L2)) [nM] | Kd (PABPC1) [nM] |
| --- | --- | --- |
| AAAAAAAAAAAAAAAAAAAAAAAAA [oligo(A)25] | 50 | – |
| B1 | – | ~50 |
